Laboratory results published in PMC6879610 (2019).

T1: MPER peptide PDT-081 (HIV-1, biotin at the C-terminus)
T1 chain: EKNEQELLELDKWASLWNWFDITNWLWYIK


Target: T1, MPER peptide PDT-081
Experiment: BLI

Binder | koff [s⁻¹]
H4K3_5M Fab (Fab, V domains shown) VH: KVQLVQSGAELKKPWSSVRVSCKASGGEPESYAFNWVRQAPGQRLEWLGGIVPLVSSTNYAQRFRGRVTISADPETSTVYLEMTGLTSADTAVYFCAREGEGWFGRPLRAFEFWGQGTLVTVST VL: EIVLTQSPGTFALSPGERATLSCRASQSVSGGALAWYQQKAGQAPRLLIYDTSGRATGVPGRFSGSGSETDFSLTISRLEPEDFAVYYCQQYGTSQSTFGQGTRLETR | 0.00067
H4K3_SFS28EPE Fab (Fab, V domains shown) VH: KVQLVQSGAELKKPWSSVRVSCKASGGEPESYAFNWVRQAPGQRLEWLGGIVPLVSSTNYAQRFRGRVTISADRSTSTVYLEMTGLTSADTAVYFCAREGEGWFGRPLRAFEFWGQGTLVTVST VL: EIVLTQSPGTFALSPGERATLSCRASQSVSGGALAWYQQKAGQAPRLLIYDTSGRATGVPGRFSGSGSETDFSLTISRLEPEDFAVYYCQQYGTSQSTFGQGTRLETR | 0.00054
H4K3_RS73PE Fab (Fab, V domains shown) VH: KVQLVQSGAELKKPWSSVRVSCKASGGSFSSYAFNWVRQAPGQRLEWLGGIVPLVSSTNYAQRFRGRVTISADPETSTVYLEMTGLTSADTAVYFCAREGEGWFGRPLRAFEFWGQGTLVTVST VL: EIVLTQSPGTFALSPGERATLSCRASQSVSGGALAWYQQKAGQAPRLLIYDTSGRATGVPGRFSGSGSETDFSLTISRLEPEDFAVYYCQQYGTSQSTFGQGTRLETR | 0.00051

Target: T1, MPER peptide PDT-081
Experiment: ELISA

Binder | EC50 [µg/mL]
PGZL1.H4K3 IgG (antibody, V domains shown) VH: KVQLVQSGAELKKPWSSVRVSCKASGGSFSSYAFNWVRQAPGQRLEWLGGIVPLVSSTNYAQRFRGRVTISADRSTSTVYLEMTGLTSADTAVYFCAREGEGWFGRPLRAFEFWGQGTLVTVST VL: EIVLTQSPGTFALSPGERATLSCRASQSVSGGALAWYQQKAGQAPRLLIYGTSGRATGVPGRFSGSGSETDFSLTISRLEPEDFAVYYCQQYGTSQSTFGQGTRLETR | 0.039
H4K3_RS73PE IgG (antibody, V domains shown) VH: KVQLVQSGAELKKPWSSVRVSCKASGGSFSSYAFNWVRQAPGQRLEWLGGIVPLVSSTNYAQRFRGRVTISADPETSTVYLEMTGLTSADTAVYFCAREGEGWFGRPLRAFEFWGQGTLVTVST VL: EIVLTQSPGTFALSPGERATLSCRASQSVSGGALAWYQQKAGQAPRLLIYDTSGRATGVPGRFSGSGSETDFSLTISRLEPEDFAVYYCQQYGTSQSTFGQGTRLETR | 0.09
H4K3_5M IgG (antibody, V domains shown) VH: KVQLVQSGAELKKPWSSVRVSCKASGGEPESYAFNWVRQAPGQRLEWLGGIVPLVSSTNYAQRFRGRVTISADPETSTVYLEMTGLTSADTAVYFCAREGEGWFGRPLRAFEFWGQGTLVTVST VL: EIVLTQSPGTFALSPGERATLSCRASQSVSGGALAWYQQKAGQAPRLLIYDTSGRATGVPGRFSGSGSETDFSLTISRLEPEDFAVYYCQQYGTSQSTFGQGTRLETR | 0.083
H4K3_SFS28EPE IgG (antibody, V domains shown) VH: KVQLVQSGAELKKPWSSVRVSCKASGGEPESYAFNWVRQAPGQRLEWLGGIVPLVSSTNYAQRFRGRVTISADRSTSTVYLEMTGLTSADTAVYFCAREGEGWFGRPLRAFEFWGQGTLVTVST VL: EIVLTQSPGTFALSPGERATLSCRASQSVSGGALAWYQQKAGQAPRLLIYDTSGRATGVPGRFSGSGSETDFSLTISRLEPEDFAVYYCQQYGTSQSTFGQGTRLETR | 0.076
